In the assay the target is protein G_1. The experiment in a line: SEC-MALS. (In general: SEC sorts molecules by how far they enter the pores of the column.)

Among the data in PMC10204179 are stoichiometry N values, retold here.

Usually stoichiometry N stands for a count of units in the complex or per binding partner. protein G_1: the stoichiometry N was determined as 2.
